What was measured:
[1] = target: T1, human CCR8 with a SNAP-tag at the N-terminus (human, UniProt P51685 1-355, SNAP-tag labelled covalently with Lumi4-Terbium); assay: cell-based or functional assay
[2] = target: T1, human CCR8 with a SNAP-tag at the …; assay: HTRF Tag-lite, inhibition of hCCL1-AF647 binding to SNAP-hCCR8 on HEK-293 cells
Protocol: The inhibition of CCL1 binding to hCCR8 was evaluated with the Tag-Lite® technology from Cisbio (Revvity). Human CCR8 is engineered with a SNAP-tag at the N-terminus of the GPCR. hCCR8 SNAP-tag is transiently transfected on HEK-293 cell line using FuGene® (Promega, Madison, WI, USA). 48 hours after transfection, cells are labeled with the substrate Lumi4-Terbium® (Cisbio, Codolet, France) which covalently reacts with the SNAP-tag, for 1 h at 37° C. Thawed or freshly labeled cells are plated in a 384 low volume white plate (GREINER Bio-One, Courtaboeuf, France) (10000 cells/well/10 μl). […] The Kd was previously obtained in a saturation binding assay on the same cells. […] The plate is next incubated at 21° C. for 2 h. Detection of HTRF signal is performed on the multiplate reader EnVision (PerkinElmer, Waltham, MA, USA). The HTRF (665/620) ratio is calculated by EnVision software, the data exported are considered as the total binding. The specific binding is calculated then by subtracting the non-specific signal from the total binding. The Ki and IC₅₀ are calculated using the “One site-Fit Ki” and “One site-FitlogIC50” from GraphPad Prism 9 (Graphpad Software, San Diego, CA, USA), respectively.

B1: anti-CCR8 mAb 1-22 (antibody, human IgG1, kappa, V domains shown)
VH: EVQLLESGGGLVQPGGSLRLSCAASGFTFNAYAMNWVRQAPGKGLEWVARIRSKSNDYATYYGDSVKGRFTISRDNSKNTLYLQMNSLRAEDTAVYYCVRGREAYYRYDGGYYAMDVWGQGTTVTVSS
VL: DIVMTQSPLSLPVTPGEPASISCRSSKSLLHSNGNTYLYWFLQKPGQSPQLLIYRVSNLASGVPDRFSGSGSGTDFTLKISRVEAEDVGVYYCMQHREYPFTFGQGTKLEIKR
notes: Humanized mAb, human IgG1 / kappa
- % hCCR8 internalization with CCL1 300 nM, mAb 1 µg/ml (HTRF) [1]: 139%
- % hCCR8 internalization with CCL1 300 nM, mAb 10 µg/ml (HTRF) [1]: 52%
- IC50 [2]: 0.1 to 1 nM
